Data published in patent publication US7807396.

Key:
[1] = target: amyloid beta peptide Aβ1-40
[2] = target: aggregated amyloid β1-40 pre-coated on 96 well plates (synthetic amyloid plaque, synthaloid)
[3] = target: T1, human β-endorphin1-31, P01189
T1 chain: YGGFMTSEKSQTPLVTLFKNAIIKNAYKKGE

[4] = target: amyloid beta peptide Aβ1-42

Protein	125I-Aβ1-40 peptide degradation in primary neuronal cultures [1]	prevention of deposition of radiolabeled Aβ1-40 onto synthaloid, 60 minutes preincubation with insulysin (FIG. 9B) [1]	prevention of deposition of radiolabeled Aβ1-40 onto synthaloid, insulysin added at zero time (FIG. 9A) [1]	rate of cleavage of 25 µM Aβ1-40 [1]	sparing of neurotoxic effects on primary rat cortical neurons (30 µM Aβ1-40, 48 hrs) [1]	release of radioactivity from 125I-Aβ1-40 first deposited onto synthetic amyloid [2]	specific activity of the recombinant enzyme (disappearance of β-endorphin by HPLC) [3]	sparing of neurotoxic effects on primary rat cortical neurons (25 µM Aβ1-42, 48 hrs) [4]
human neprilysin expressed from a lentiviral construct in primary neuronal cultures of neprilysin deficient mice (protein) GKSESQMDITDINTPKPKKKQRWTPLEISLSVLVLLLTIIAVTMIALYATYDDGICKSSDCIKSAARLIQNMDATTEPCTDFFKYACGGWLKRNVIPETSSRYGNFDILRDELEVVLKDVLQEPKTEDIVAVQKAKALYRSCINESAIDSRGGEPLLKLLPDIYGWPVATENWEQKYGASWTAEKAIAQLNSKYGKKVLINLFVGTDDKNSVNHVIHIDQPRLGLPSRDYYECTGIYKEACTAYVDFMISVARLIRQEERLPIDENQLALEMNKVMELEKEIANATAKPEDRNDPMLLYNKMTLAQIQNNFSLEINGKPFSWLNFTNEIMSTVNISITNEEDVVVYAPEYLTKLKPILTKYSARDLQNLMSWRFIMDLVSSLSRTYKESRNAFRKALYGTTSETATWRRCANYVNGNMENAVGRLYVEAAFAGESKHVVEDLIAQIREVFIQTLDDLTWMDAETKKRAEEKALAIKERIGYPDDIVSNDNKLNNEYLELNYKEDEYFENIIQNLKFSQSKQLKKLREKVDKDEWISGAAVVNAFYSSGRNQIVFPAGILQPPFFSAQQSNSLNYGGIGMVIGHEITHGFDDNGRNFNKDGDLVDWWTQQSASNFKEQSQCMVYQYGNFSWDLAGGQHLNGINTLGENIADNGGLGQAYRAYQNYIKKNGEEKLLPGLDLNHKQLFFLNFAQVWCGTYRPEYAVNSIKTDVHSPGNFRIIGTLQNSAEFSEAFHCRKNSYMNPEKKCRVW	neprilysin expressing neuronal cell cultures virtually destroyed all Aβ peptide in comparison to the controls	–	–	–	–	–	–	–
recombinant rat insulysin with an N-terminal His6 affinity tag, expressed in baculovirus-infected Sf9 cells (protein) MNNPAIQRIEDHIVKSPEDKREYRGLELANGIKVLLISDPTTDKSSAALDVHIGSLSDPPNIPGLSHFCEHMLFLGTKKYPKENEYSQFLSEHAGSSNAFTSGEHTNYYFDVSHEHLEGALDRFAQFFLCPLFDASCKDREVNAVDSEHEKNVMNDAWRLFQLEKATGNPKHPFSKFGTGNKYTLETRPNQEGIDVREELLKFHSTYYSSNLMAICVLGRESLDDLTNLVVKLFSEVENKNVPLPEFPEHPFQEEHLKQLYKIVPIKDIRNLYVTFPIPDLQQYYKSNPGHYLGHLIGHEGPGSLLSELKSKGWVNTLVGGQKEGARGFMFFIINVDLTEEGLLHVEDIILHMFQYIQKLRAEGPQEWVFQECKDLNAVAFRFKDKERPRGYTSKIAGKLHYYPLNGVLTAEYLLEEFRPDLIDMVLDKLRPENVRVAIVSKSFEGKTDRTEQWYGTQYKQEAIPEDVIQKWQNADLNGKFKLPTKNEFIPTNFEILALEKDATPYPALIKDTAMSKLWFKQDDKFFLPKACLNFEFFSPFAYVDPLHCNMAYLYLELLKDSLNEYAYAAELAGLSYDLQNTIYGMYLSVKGYNDKQPILLKKITEKMATFEIDKKRFEIIKEAYMRSLNNFRAEQPHQHAMYYLRLLMTEVAWTKDELKEALDDVTLPRLKAFIPQLLSRLHIEALLHGNITKQAALGVMQMVEDTLIEHAHTKPLLPSQLVRYREVQLPDRGWFVYQRRNEVHNNCGIEIYYQTDMQSTSENMFLELFCQIISEPCFNTLRTKEQLGYIVFSGPRRANGIQGLRFIIQSEKPPHYLESRVEAFLITMEKAIEDMTEEAFQKHIQALAIRRLDKPKKLSAECAKYWGEIISQQYNYDRDNIEVAYLKTLSKDDIIKFYKEMLAVDAPRRHKVSVHVLAREMDSCPVVGEFPSQNDINLSEAPPLPQPEVIHNMTEFKRGLPLFPLVKPHINFMAAKL	–	50 ng insulysin is able to prevent the deposition of radiolabeled Aβ1-40 onto the synthetic amyloid	50 ng of insulysin is able to prevent the deposition of radiolabeled Aβ1-40	1.2 µmols/min/mg enzyme	as little as 50 ng of insulysin was effective in sparing the neurotoxic effects of Aβ1-40	After a 24 hr incubation with 5 µg of insulysin no radioactivity was released	2.6 µmols/min/mg	500 ng of insulysin was effective in sparing the neurotoxic effects of Aβ1-42
